These results are taken from paper PMC3081424 (Archives of biochemistry and biophysics, 2011).

One experiment concerns the target Gαq. Nature of the experiment: eCFP/eYFP FRET in living cells, basal. The settings on record: sites S887.
Experiment [1] has as its target T1, eYFP-PLCβ1 (wild type phospholipase Cβ1) (UniProt P10687 1-1216).
T1 sequence (looked up): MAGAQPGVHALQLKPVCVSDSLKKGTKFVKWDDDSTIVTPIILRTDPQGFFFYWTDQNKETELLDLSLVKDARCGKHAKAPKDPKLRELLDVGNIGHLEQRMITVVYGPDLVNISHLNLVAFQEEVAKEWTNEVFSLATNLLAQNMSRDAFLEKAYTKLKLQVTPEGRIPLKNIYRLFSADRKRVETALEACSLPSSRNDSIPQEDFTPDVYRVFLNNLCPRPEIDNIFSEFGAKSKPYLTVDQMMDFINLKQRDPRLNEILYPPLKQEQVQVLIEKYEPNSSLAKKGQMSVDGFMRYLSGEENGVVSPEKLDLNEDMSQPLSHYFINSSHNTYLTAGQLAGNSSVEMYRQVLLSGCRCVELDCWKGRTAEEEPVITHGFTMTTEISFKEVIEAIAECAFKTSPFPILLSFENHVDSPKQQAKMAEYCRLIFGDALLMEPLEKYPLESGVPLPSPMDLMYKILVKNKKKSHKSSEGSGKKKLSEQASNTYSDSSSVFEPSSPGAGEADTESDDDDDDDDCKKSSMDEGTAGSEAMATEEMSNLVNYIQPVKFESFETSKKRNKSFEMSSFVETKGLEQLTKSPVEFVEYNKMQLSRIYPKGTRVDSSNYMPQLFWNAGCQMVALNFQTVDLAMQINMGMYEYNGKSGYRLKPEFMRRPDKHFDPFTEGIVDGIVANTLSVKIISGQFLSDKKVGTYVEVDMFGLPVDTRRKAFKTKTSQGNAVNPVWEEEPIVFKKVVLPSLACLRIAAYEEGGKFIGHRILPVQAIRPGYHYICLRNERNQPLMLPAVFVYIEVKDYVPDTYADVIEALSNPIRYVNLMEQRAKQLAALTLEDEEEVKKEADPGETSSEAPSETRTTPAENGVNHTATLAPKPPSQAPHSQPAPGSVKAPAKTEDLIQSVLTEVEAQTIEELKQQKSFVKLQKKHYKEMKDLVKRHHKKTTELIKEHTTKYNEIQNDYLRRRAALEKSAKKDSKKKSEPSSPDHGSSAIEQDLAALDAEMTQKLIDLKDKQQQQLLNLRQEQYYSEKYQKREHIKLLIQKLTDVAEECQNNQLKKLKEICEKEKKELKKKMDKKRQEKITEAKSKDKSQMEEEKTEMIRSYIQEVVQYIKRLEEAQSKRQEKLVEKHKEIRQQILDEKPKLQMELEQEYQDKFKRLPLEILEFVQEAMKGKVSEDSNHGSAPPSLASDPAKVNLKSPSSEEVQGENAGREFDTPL
Nature of the experiment: FRET or BRET. On the technique in general: Bioluminescence resonance energy transfer reports proximity on the nanometre scale.

The next experiment concerns the target T2, eYFP-PLCβ1 S887A (UniProt P10687 1-1216, S887A).
T2 sequence (looked up): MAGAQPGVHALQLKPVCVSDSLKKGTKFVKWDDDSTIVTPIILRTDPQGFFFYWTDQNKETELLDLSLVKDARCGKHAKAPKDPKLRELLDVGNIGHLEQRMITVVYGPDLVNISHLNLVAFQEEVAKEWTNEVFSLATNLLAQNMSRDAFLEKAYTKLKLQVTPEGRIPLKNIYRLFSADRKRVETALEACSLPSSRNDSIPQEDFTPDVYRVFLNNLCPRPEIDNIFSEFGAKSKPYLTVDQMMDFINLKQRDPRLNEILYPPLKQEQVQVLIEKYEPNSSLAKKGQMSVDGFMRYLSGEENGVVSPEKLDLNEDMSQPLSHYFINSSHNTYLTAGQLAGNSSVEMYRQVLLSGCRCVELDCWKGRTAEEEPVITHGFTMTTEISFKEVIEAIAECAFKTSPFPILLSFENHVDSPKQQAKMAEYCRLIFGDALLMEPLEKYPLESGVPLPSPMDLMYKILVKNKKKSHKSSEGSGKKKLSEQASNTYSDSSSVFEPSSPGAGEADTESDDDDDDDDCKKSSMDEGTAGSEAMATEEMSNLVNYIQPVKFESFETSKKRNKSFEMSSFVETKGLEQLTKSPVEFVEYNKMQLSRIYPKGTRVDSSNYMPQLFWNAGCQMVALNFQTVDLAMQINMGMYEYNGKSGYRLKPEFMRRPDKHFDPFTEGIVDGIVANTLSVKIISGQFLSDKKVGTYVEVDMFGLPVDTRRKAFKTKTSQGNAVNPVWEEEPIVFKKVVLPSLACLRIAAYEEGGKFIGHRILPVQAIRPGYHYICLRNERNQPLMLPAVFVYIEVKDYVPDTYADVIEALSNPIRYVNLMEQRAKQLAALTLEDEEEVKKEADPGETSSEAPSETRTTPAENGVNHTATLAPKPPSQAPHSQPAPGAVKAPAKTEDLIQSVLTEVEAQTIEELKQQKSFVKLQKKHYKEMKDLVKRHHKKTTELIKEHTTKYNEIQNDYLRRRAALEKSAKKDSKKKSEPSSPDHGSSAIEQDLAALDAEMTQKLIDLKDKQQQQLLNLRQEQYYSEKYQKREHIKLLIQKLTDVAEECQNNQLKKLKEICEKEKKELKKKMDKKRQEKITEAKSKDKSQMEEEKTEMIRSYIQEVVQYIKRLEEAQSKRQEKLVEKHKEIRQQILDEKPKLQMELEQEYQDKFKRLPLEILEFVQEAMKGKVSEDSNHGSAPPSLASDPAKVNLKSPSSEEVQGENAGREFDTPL
The experiment can be described thus: FRET or BRET.

A further experiment concerns the target T3, eYFP-PLCβ1 S887D (UniProt P10687 1-1216, S887D).
T3 sequence (looked up): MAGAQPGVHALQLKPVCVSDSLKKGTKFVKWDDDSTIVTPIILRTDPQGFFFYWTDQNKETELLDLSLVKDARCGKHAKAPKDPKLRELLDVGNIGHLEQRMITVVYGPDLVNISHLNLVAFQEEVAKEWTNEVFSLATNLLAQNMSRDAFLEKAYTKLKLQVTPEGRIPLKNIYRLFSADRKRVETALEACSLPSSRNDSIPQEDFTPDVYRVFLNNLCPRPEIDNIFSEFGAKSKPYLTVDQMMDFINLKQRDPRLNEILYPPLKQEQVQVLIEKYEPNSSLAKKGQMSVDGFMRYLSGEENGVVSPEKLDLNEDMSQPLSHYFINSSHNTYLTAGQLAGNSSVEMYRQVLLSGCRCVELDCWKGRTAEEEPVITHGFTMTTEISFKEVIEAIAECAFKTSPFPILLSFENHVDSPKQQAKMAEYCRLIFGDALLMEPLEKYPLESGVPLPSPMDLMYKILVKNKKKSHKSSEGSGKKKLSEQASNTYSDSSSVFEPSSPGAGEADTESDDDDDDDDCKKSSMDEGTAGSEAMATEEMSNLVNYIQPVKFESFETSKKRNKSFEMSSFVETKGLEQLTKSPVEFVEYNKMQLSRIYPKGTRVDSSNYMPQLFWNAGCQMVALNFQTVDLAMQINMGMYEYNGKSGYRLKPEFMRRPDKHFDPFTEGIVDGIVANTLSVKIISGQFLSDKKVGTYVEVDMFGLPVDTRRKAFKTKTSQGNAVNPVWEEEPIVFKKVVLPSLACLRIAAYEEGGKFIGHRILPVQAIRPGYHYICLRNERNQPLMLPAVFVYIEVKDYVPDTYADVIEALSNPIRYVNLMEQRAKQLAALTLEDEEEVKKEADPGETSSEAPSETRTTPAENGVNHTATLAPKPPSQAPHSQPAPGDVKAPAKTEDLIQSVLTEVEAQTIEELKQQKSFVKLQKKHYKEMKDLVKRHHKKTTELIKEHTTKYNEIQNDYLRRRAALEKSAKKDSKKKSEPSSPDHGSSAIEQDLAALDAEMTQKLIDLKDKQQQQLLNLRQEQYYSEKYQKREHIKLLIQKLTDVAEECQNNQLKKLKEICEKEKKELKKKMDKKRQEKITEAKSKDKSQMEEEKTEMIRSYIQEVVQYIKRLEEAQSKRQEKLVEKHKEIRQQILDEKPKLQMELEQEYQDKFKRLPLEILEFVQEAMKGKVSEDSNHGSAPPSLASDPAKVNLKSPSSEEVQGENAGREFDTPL
Nature of the experiment: FRET or BRET.

For the molecule PLCβ1 S887A, the “other: FRET efficiency” value with Gαq (reference: wild type) is recorded as “same; reference 38±4”.

PLCβ1 S887D: the entries for the “other: FRET efficiency” value in the experiment with Gαq (reference: S887A) and with Gαq (reference: wild type) were “same; reference 30±6” and “same; reference 38±4”, respectively.

B1: eCFP-Gαq (natural protein, UniProt P21279 1-359, looked up)
chain: MTLESIMACCLSEEAKEARRINDEIERQLRRDKRDARRELKLLLLGTGESGKSTFIKQMRIIHGSGYSDEDKRGFTKLVYQNIFTAMQAMIRAMDTLKIPYKYEHNKAHAQLVREVDVEKVSAFENPYVDAIKSLWNDPGIQECYDRRREYQLSDSTKYYLNDLDRVADPSYLPTQQDVLRVRVPTTGIIEYPFDLQSVIFRMVDVGGQRSERRKWIHCFENVTSIMFLVALSEYDQVLVESDNENRMEESKALFRTIITYPWFQNSSVILFLNKKDLLEEKIMYSHLVDYFPEYDGPQRDAQAAREFILKMFVDLNPDSDKIIYSHFTCATDTENIRFVFAAVKDTILQLNLKEYNLV
B1: the FRET efficiency in experiment [1] is 38 ± 4%; with eYFP-PLCβ1 S887A, 30 ± 6%; in the experiment with eYFP-PLCβ1 S887D, 39 ± 3%.
